Residue numbers refer to the chain shown, from its start. Names and notes keep the numbering of the source. Each block holds one binder with its values, some of them ahead of it.
Legend:
[1] = target: T1, biotinylated human IL-2 with C-terminal biotin acceptor peptide (human, UniProt P60568 21-153, biotinylated with BirA ligase on the C-terminal biotin acceptor peptide); experiment: flow cytometry on yeast displaying the scFv, 5 nM soluble biotinylated IL-2 co-incubated with soluble IL-2Rα
T1 construct: Immobilized on streptavidin tips in BLI and used as the soluble labelled ligand in the yeast display assays; also called biotinylated hIL-2; immobilized hIL-2
Procedure: (§1) Cells were then washed and stained with a 1:200 dilution of AlexaFluor 647-complexed streptavidin (Thermo Fisher Scientific) in PBSA for 15 minutes at 4° C. After a final wash, cells were analyzed for target binding using a CytoFLEX flow cytometer (Beckman Coulter). Background-subtracted and normalized binding curves were fitted to a first-order binding model and equilibrium dissociation constant (KD) values were determined using GraphPad Prism software.

[2] = target: T1, biotinylated human IL-2 with C-terminal …; experiment: flow cytometry, titration of soluble biotinylated IL-2 on yeast displaying the scFv, streptavidin-AF647 detection
Procedure: as §1

[3] = target: T1, biotinylated human IL-2 with C-terminal …; experiment: bio-layer interferometry (Octet), equilibrium titration on immobilized hIL-2
[4] = target: T1, biotinylated human IL-2 with C-terminal …; experiment: flow cytometry competition: soluble IL-2Rα titrated against 10 nM biotinylated IL-2; competitor is the yeast-displayed 602 scFv
[5] = target: T1, biotinylated human IL-2 with C-terminal …; experiment: flow cytometry competition: soluble IL-2Rα titrated against 5 nM biotinylated IL-2; competitor is the yeast-displayed F10 scFv

B1: yeast-displayed F10 single-chain variable fragment (variant of the 602 scFv) (scFv)
scFv: EVQLQESGPGLVAPSQSLSITCTVSGFSLTNYDISWIRQPPGKGLEWLGVIWTGGGTNYNSGFMSRLSITKDNSKSQVFLKMNSLQTDDTAIYYCVRQGRSPYWGQGTLVTVSAGGGGSGGGGSGGGGSDIQVTQSPSSLSVSLGDRVTITCKASKDIYNRLAWYQQKPGNAPRLLISGATSLETGVPSRFSGSGSGKDYTLTITSLQTEDVATYYCQQSWDTPYTFGGGTKLEIK
notes: also called F10 scFv; evolved F10 scFv; not shown: N-terminal Aga2, (G4S)3 linker, 3C and factor Xa cleavage sites; C-terminal c-Myc tag
- binding result [1]: binds

B4: human IL-2Rα extracellular domain, soluble, with C-terminal hexahistidine tag (receptor)
chain: ELCDDDPPEIPHATFKAMAYKEGTMLNCECKRGFRRIKSGSLYMLCTGNSSHSSWDNQCQCTSSATRNTTKQVTPQPEEQKERKTTEMQSPMQPVDQASLPGHCREPPPWENEATERIYHFVVGQMVYYQCVQGYRALHRGPAESVCKMTHGKTRWTQPQLICTGEMETSQFPGEEKPQASPEGRPESETSCLVTTTDFQIQTEMAATMETSIFTTEYQHHHHHH
notes: extracellular domain; also called soluble IL-2Rα
- IC50 (read off the curve) [4]: ~60 nM
- IC50 (read off the curve) [5]: ~300 nM

More lines, now with the values ahead:

- EC50 (read off the curve) [2]: ~10 nM
B2: yeast-displayed 602 single-chain variable fragment (VH-(G4S)3-VL, fused to Aga2) (scFv)
scFv: B1 scFv with S101T, S220F, D222G
notes: not shown: N-terminal Aga2, (G4S)3 linker, 3C and factor Xa cleavage sites; C-terminal c-Myc tag

- Kd [3]: 3.5 nM
B3: recombinant 602 antibody (anti-human IL-2), mouse IgG2a kappa (antibody, V domains shown)
VH: EVQLQESGPGLVAPSQSLSITCTVSGFSLTNYDISWIRQPPGKGLEWLGVIWTGGGTNYNSGFMSRLSITKDNSKSQVFLKMNSLQTDDTAIYYCVRQGRTPYWGQGTLVTVSA
VL: DIQVTQSPSSLSVSLGDRVTITCKASKDIYNRLAWYQQKPGNAPRLLISGATSLETGVPSRFSGSGSGKDYTLTITSLQTEDVATYYCQQFWGTPYTFGGGTKLEIKR
notes: They are built here from the component entries so that the signal peptides are left out; also called MAB602
